Numbering of substitutions follows the chain as printed. Names may count otherwise.

Experimental findings from PMC9569322, “Determination of the boundary lipids of sticholysins using tryptophan quenching” (Scientific Reports, 2022) are described below.

B1: Sticholysin II (StnII), wild type (natural protein, Stichodactyla helianthus, UniProt P07845 1-175, looked up)
chain: ALAGTIIAGASLTFQVLDKVLEELGKVSRKIAVGIDNESGGTWTALNAYFRSGTTDVILPEFVPNTKALLYSGRKDTGPVATGAVAAFAYYMSSGNTLGVMFSVPFDYNWYSNWWDVKIYSGKRRADQGMYEDLYYGNPYRGDNGWHEKNLGYGLRMKGIMTSAGEAKMQIKISR
notes: Sticholysin II (StnII), actinoporin of the sea anemone Stichodactyla helianthus; also called StnII WT; StnII-WT; source: E. coli RB791, purified to homogeneity
B2: StnII-I6C/K67C^ox (oxidized double-Cys mutant of sticholysin II) (natural protein, Stichodactyla helianthus, UniProt P07845 1-175, looked up)
chain: B1 chain with I6C, K67C
modifications: disulfide bridge between C6 and C67 (oxidized form)
notes: Sticholysin II (StnII) of Stichodactyla helianthus with I6C and K67C, made by site-directed mutagenesis; the disulfide prevents the deployment of the N-terminal alpha-helix; Used oxidized; also called StnII CC; source: E. coli RB791, purified to homogeneity
B3: Sticholysin I (StnI), wild type (natural protein, Stichodactyla helianthus, UniProt P81662 1-176, looked up)
chain: SELAGTIIDGASLTFEVLDKVLGELGKVSRKIAVGIDNESGGTWTALNAYFRSGTTDVILPEVVPNTKALLYSGRKSSGPVATGAVAAFAYYMSNGNTLGVMFSVPFDYNWYSNWWDVKIYPGKRRADQGMYEDMYYGNPYRGDNGWYQKNLGYGLRMKGIMTSAGEAKMQIKISR
notes: Sticholysin I (StnI), actinoporin of the sea anemone Stichodactyla helianthus; also called StnI WT; source: E. coli RB791, purified to homogeneity
B4: StnI-I7C/K68C^ox (oxidized double-Cys mutant of sticholysin I) (natural protein, Stichodactyla helianthus, UniProt P81662 1-176, looked up)
chain: B3 chain with I7C, K68C
modifications: disulfide bridge between C7 and C68 (oxidized form)
notes: Sticholysin I (StnI) of Stichodactyla helianthus with I7C and K68C, made by site-directed mutagenesis; the disulfide holds the N-terminal alpha-helix on the beta-sandwich; Used oxidized; also called StnI CC; source: E. coli RB791, purified to homogeneity

The data set deals with the molecule itself. Kind of data set: cross-linking.
Turning to B1, the binding result is “binds”.
As for B2, the entry is “binds”; as for B3, “binds”.
As for B4, the entry is “binds”.
